Test results taken from patent US20040102611.

Assays:
[1] = target: T1, DBF4 (human DBF4/ASK1), Q9UBU7
T1 chain: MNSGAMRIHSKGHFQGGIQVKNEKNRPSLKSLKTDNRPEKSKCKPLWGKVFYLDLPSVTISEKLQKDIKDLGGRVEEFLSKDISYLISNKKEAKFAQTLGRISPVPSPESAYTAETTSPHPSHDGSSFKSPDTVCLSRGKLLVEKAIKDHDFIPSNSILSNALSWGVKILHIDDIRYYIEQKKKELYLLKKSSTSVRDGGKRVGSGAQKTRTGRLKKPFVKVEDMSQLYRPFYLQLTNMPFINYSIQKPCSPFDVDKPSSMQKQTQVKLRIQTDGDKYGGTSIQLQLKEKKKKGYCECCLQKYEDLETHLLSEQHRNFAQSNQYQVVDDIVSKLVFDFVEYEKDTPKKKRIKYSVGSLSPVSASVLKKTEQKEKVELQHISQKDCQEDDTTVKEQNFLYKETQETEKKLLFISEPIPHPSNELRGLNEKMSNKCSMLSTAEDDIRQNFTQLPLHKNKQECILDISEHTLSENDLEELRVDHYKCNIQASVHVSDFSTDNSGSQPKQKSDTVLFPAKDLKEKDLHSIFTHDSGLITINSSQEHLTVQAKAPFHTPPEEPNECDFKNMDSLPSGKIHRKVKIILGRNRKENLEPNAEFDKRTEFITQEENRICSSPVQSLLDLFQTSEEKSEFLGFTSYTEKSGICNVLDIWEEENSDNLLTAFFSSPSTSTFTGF

[2] = target: T2, HA-DRF1 (DRF1 with N-terminal HA epitope, expressed from pCDNAHAdrf1)
T2 chain: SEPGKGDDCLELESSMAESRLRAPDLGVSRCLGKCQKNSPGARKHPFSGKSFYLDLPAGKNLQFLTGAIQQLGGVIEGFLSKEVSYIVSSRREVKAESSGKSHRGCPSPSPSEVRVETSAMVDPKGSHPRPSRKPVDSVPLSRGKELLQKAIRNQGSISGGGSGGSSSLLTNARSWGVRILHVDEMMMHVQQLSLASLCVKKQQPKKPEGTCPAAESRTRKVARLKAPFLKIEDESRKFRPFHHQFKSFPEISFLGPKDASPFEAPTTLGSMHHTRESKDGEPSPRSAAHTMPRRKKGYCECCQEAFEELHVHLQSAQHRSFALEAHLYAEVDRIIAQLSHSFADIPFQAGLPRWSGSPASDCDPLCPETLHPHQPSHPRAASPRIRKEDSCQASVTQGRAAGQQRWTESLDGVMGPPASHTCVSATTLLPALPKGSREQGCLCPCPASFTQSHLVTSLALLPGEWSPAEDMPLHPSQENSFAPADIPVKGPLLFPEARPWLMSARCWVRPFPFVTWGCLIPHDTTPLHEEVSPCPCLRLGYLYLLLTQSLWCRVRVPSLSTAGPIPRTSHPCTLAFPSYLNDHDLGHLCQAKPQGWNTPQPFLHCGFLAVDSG

B1: FLAG-tagged human CDC7 kinase, wild type (pCdc7FLAG-tagged, in pCMV-Tag2) (protein)
chain: MEASLGIQMDEPMAFSPQRDRFQAEGSLKKNEQNFKLAGVKKDIEKLYEAVPQLSNVFKIEDKIGEGTFSSVYLATAQLQVGPEEKIALKHLIPTSHPIRIAAELQCLTVAGGQDNVMGVKYCFRKNDHVVIAMPYLEHESFLDILNSLSFQEVREYMLNLFKALKRIHQFGIVHRDVKPSNFLYNRRLKKYALVDFGLAQGTHDTKIELLKFVQSEAQQERCSQNKSHIITGNKIPLSGPVPKELDQQSTTKASVKRPYTNAQIQIKQGKDGKEGSVGLSVQRSVFGERNFNIHSSISHESPAVKLMKQSKTVDVLSRKLATKKKAISTKVMNSAVMRKTASSCPASLTCDCYATDKVCSICLSRRQQVAPRAGTPGFRAPEVLTKCPNQTTAIDMWSAGVIFLSLLSGRYPFYKASDDLTALAQIMTIRGSRETIQAAKTFGKSILCSKEVPAQDLRKLCERLRGMDSSTPKLTSDIQGHASHQPAISEKTDHKASCLVQTPPGQYSGNSFKKGDSNSCEHCFDEYNTNLEGWNEVPDEAYDLLDKLLDLNPASRITAEEALLHPFFKDMSL
For B1, the “phosphorylation of MCM2 (1-285) by immunoprecipitated complexes (32P kinase assay, autoradiography)” value [1] was “DRF1 is a regulatory subunit of CDC7 able to induce its kinase activity in a way comparable to DBF4 (lane 5)”, the “phosphorylation of DRF1 (32P, FIG. 3 panel A)” value [2] was “DRF1, as DBF4, was detected as a phosphoprotein when expressed with wild type CDC7 but not with the kinase negative” and the “phosphorylation of MCM2 (1-285) by immunoprecipitated complexes (32P kinase assay, autoradiography)” value [2] was “In the presence of HA-DRF1 and wild-type CDC7, efficient phosphorylation of MCM2 (1-285) (above the background shown in lane 4, panel B) was observed”. The “phosphorylation of MCM2 by CDC7” value [2] was “in the presence of DRF1, CDC7 is able to phosphorylate its physiological substrates MCM2”.

B2: FLAG-tagged human CDC7 kinase, kinase negative form K90R (pCdc7FLAG K90R) (protein)
chain: MEASLGIQMDEPMAFSPQRDRFQAEGSLKKNEQNFKLAGVKKDIEKLYEAVPQLSNVFKIEDKIGEGTFSSVYLATAQLQVGPEEKIALRHLIPTSHPIRIAAELQCLTVAGGQDNVMGVKYCFRKNDHVVIAMPYLEHESFLDILNSLSFQEVREYMLNLFKALKRIHQFGIVHRDVKPSNFLYNRRLKKYALVDFGLAQGTHDTKIELLKFVQSEAQQERCSQNKSHIITGNKIPLSGPVPKELDQQSTTKASVKRPYTNAQIQIKQGKDGKEGSVGLSVQRSVFGERNFNIHSSISHESPAVKLMKQSKTVDVLSRKLATKKKAISTKVMNSAVMRKTASSCPASLTCDCYATDKVCSICLSRRQQVAPRAGTPGFRAPEVLTKCPNQTTAIDMWSAGVIFLSLLSGRYPFYKASDDLTALAQIMTIRGSRETIQAAKTFGKSILCSKEVPAQDLRKLCERLRGMDSSTPKLTSDIQGHASHQPAISEKTDHKASCLVQTPPGQYSGNSFKKGDSNSCEHCFDEYNTNLEGWNEVPDEAYDLLDKLLDLNPASRITAEEALLHPFFKDMSL
B2 was tested, and the “phosphorylation of MCM2 (1-285) by immunoprecipitated complexes (32P kinase assay, autoradiography)” value [2] was “it can be abolished by overexpression of the mutant K90R (lanes 1 and 6)”.
